Here are results for 7 molecules from doi:10.1101/2021.04.25.441314.

Where two headings read alike, the source gives them in different places.

The target of data set [1] is T1, Hfq wt (Escherichia coli, UniProt P0A6X3 1-102). Put plainly: filter binding.
The target in data set [2] is T1, Hfq wt. Put plainly: competition.
For data set [3], the target named is T1, Hfq wt. Description: competition. The source holds these as a separate data set.
In data set [4] the target is T2, Hfq Y25D (distal face) (Escherichia coli, UniProt P0A6X3 1-102, Y25D). Description: filter binding.
A further data set deals with Hfq K56A (proximal face) (Escherichia coli, UniProt P0A6X3 1-102, K56A). Description: filter binding.
Data set [5] has as its target T3, Hfq R16A (rim) (Escherichia coli, UniProt P0A6X3 1-102, R16A). Put plainly: filter binding.
Data set [6] has as its target T1, Hfq wt. Put plainly: filter binding. This is another data set of the same source.
For data set [7], the target named is T2, Hfq Y25D (distal face). Description: filter binding. This is another data set of the same source.
Data set [8] concerns the target T3, Hfq R16A (rim). Put plainly: filter binding. The source holds these as a separate data set.
The target in data set [9] is T2, Hfq Y25D (distal face). Put plainly: EMSA. On the technique in general: In EMSA bound probe runs differently from free probe, usually more slowly.
Data set [10] has as its target T1, Hfq wt. Put plainly: filter binding. The source holds these as a separate data set.
Data set [11] has as its target T2, Hfq Y25D (distal face). Description: filter binding. This is another data set of the same source.
In data set [12] the target is T3, Hfq R16A (rim). Description: filter binding. The source holds these as a separate data set.
The target of data set [13] is T1, Hfq wt. Put plainly: filter binding. This is another data set of the same source.
Data set [14] concerns the target T2, Hfq Y25D (distal face). Put plainly: filter binding. This is another data set of the same source.
Data set [15] has as its target T3, Hfq R16A (rim). Put plainly: filter binding. The source holds these as a separate data set.
Data set [16] concerns the target T1, Hfq wt. Put plainly: filter binding. This is another data set of the same source.
The target in data set [17] is T3, Hfq R16A (rim). Put plainly: filter binding. The source holds these as a separate data set.
Data set [18] concerns the target T1, Hfq wt. Put plainly: filter binding. The source holds these as a separate data set.
The target in data set [19] is T2, Hfq Y25D (distal face). Put plainly: filter binding. This is another data set of the same source.

B1: AgvB (structured_RNA)
RNA: GGCGAUAACACAACAAUAUCAGUAUCUCAUGCUAUUGCCCGAACCCAUUCGGGCAUUUUU
As for B1, the Kd with Hfq wt [1] was 0.38 ± 0.06 nM; with Hfq Y25D (distal face) [4], 0.13 ± 0.003 nM; with Hfq K56A (proximal face), 27.2 ± 2.4 nM; with Hfq R16A (rim) [5], 2.7 ± 0.12 nM. For the same molecule, the results for the IC50 with Hfq wt [2] and with Hfq wt [3] were 3.2 ± 1.4 nM and 9.9 ± 2.7 nM, respectively.

B2: AgvB-U9 (structured_RNA)
RNA: GGCGAUAACACAACAAUAUCAGUAUCUCAUGCUAUUGCCCGAACCCAUUCGGGCAUUUUUUUUU
Consider B2, for which the figures for the Kd in the data set with Hfq wt [6], with Hfq Y25D (distal face) [7] and with Hfq R16A (rim) [8] were 0.18 ± 0.02 nM, 0.12 ± 0.016 nM and 0.19 ± 0.02 nM, respectively.

B3: RybB (structured_RNA)
RNA: GGCCACUGCUUUUCUUUGAUGUCCCCAUUUUGUGGAGCCCAUCAACCCCGCCAUUUCGGUUCAAGGUUGAUGGGUUUUUU
Take B3: in the data set with Hfq Y25D (distal face) [9], the binding result is reported as “binds”.

B4: AgvB-U0 (structured_RNA)
RNA: GGCGAUAACACAACAAUAUCAGUAUCUCAUGCUAUUGCCCGAACCCAUUCGGGCA
With B4, the Kd with Hfq wt [10] turned out to be 1.75 ± 0.6 nM; with Hfq Y25D (distal face) [11], 21 ± 8 nM; in the data set with Hfq R16A (rim) [12], 3.9 ± 0.76 nM.

B5: 3'ETSleuZ (structured_RNA)
RNA: GGCCCGGAUGGUGGAAUCGGUAGACACAAGGGAUUUAAAAUCCCUCGGCGUUCGCGCUGUGCGGGUUCAAGUCCCGCUCCGGGUACCAUGGGAAAGAUAAGAAUAAAAUCAAAGCAAUAAGCAGUGUCGUGAAACCACCUUCGGGUGGUUUUUUU
With B5, the figures for the Kd in the data set with Hfq wt [13] and with Hfq Y25D (distal face) [14] were 0.22 ± 0.008 nM and 0.34 ± 0.18 nM, respectively. In addition, the IC50 in the data set with Hfq wt [2] turned out to be 2.8 ± 0.35 nM; with Hfq wt [3] it was 39 ± 7.3 nM. In the data set with Hfq R16A (rim) [15], the binding result is listed as “binds”.

B6: 3'ETSleuZ-U4 (structured_RNA)
RNA: GGCCCGGAUGGUGGAAUCGGUAGACACAAGGGAUUUAAAAUCCCUCGGCGUUCGCGCUGUGCGGGUUCAAGUCCCGCUCCGGGUACCAUGGGAAAGAUAAGAAUAAAAUCAAAGCAAUAAGCAGUGUCGUGAAACCACCUUCGGGUGGUUUU
Take B6: the binding result in the data set with Hfq wt [16] is given as “binds”.

B7: GcvB (structured_RNA)
RNA: GACUUCCUGAGCCGGAACGAAAAGUUUUAUCGGAAUGCGUGUUCUGGUGAACUUUUGGCUUACGGUUGUGAUGUUGUGUUGUUGUGUUUGCAAUUGGUCUGCGAUUCAGACCAUGGUAGCAAAGCUACCUUUUUUCACUUCCUGUACAUUUACCCUGUCUGUCCAUAGUGAUUAAUGUAGCACCGCCUAAUUGCGGUGCUUUUUUU
Consider B7, for which, in the data set with Hfq R16A (rim) [17], the binding signal is 30 fold weaker than wt Hfq. Moreover, in the data set with Hfq wt [3], the IC50 came to 23 ± 5.2 nM. Further, the Kd with Hfq wt [18] and with Hfq Y25D (distal face) [19] was less than 1 nM in each case.

In general, Kd refers to the equilibrium constant for the complex coming apart. Read a high Kd as lower affinity. Broadly, the IC50 is the concentration that inhibits the measured activity by half. High values mean weaker potency in that assay, low ones greater potency in that assay.
